Reference: article PMC3232247

Molecular target: T1, RGSZ2 RH region (RGS box), recombinant, GST-free (murine)
T1 sequence (Q9QZB0 whole entry, looked up): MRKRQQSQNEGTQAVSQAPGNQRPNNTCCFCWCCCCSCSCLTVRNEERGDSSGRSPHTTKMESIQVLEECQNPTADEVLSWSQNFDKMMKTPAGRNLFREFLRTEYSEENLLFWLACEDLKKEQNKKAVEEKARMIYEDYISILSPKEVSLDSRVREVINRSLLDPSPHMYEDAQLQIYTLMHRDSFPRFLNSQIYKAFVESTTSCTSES

Substance: SUMO1 (Small Ubiquitin-like MOdifier 1) (from UniProt P63165 1-97) (natural protein)
- k cat of GTP hydrolysis by Gαi, single turnover, with RGSZ2 RH and free SUMO1 (4.0 with RH without SUMO1; 2.2 for Gαi alone): 0.0417 s⁻¹
